Measured values taken from patent US20250320282A1 (MABYLON, published 2025).
Substitutions are numbered along the chain they refer to.

T1: Ara h 6 (Arachis hypogaea allergen 6) (Arachis hypogaea, UniProt Q647G9 22-145)
T1 construct: Peanut allergen; also called Ara h 6.0101; nAra h 6
T1 sequence: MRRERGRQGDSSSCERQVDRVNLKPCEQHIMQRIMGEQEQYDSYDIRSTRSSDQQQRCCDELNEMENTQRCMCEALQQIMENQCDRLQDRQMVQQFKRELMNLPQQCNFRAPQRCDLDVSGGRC

T2: Ara h 2 (Arachis hypogaea allergen 2) (Arachis hypogaea, UniProt Q6PSU2 22-172)
T2 construct: Peanut allergen; also called nAra h 2; natural Ara h 2
T2 sequence: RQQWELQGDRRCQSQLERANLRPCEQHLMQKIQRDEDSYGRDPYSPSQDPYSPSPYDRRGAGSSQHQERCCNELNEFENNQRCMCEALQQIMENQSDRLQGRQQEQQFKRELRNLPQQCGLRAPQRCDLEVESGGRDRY

B1: 7G6_rb_IGHV1S47_J3+IGKV1S19_JK1-2 (antibody, V domains shown)
VH: QEQLVESGGGLVQPEGSLTLTCKASGFDFSDYTMHWVRQAPGKGPEWIAAISYGGTNKYYADSVKGRFTISRSTSLNTVTLQMTSLTAVDTATYFCARDSGYRSLLHWGQGTLVTVSS
VL: AAVLTQTPSPVSAAVGGTVTIKCRSSQSLVHRNGYNYLDWYQQKPGQPPKLLIYMASKRASGVPDRFSGSGSGTQFTLTISGVQCDDAATYYCMQALQTWTFGGGTKVVVK
B2: 7G6_rb_IGHV1S47_J3+K66N_IGKV1S19_JK1-2 (antibody, V domains shown)
VH: B1 VH
VL: B1 VL with K58N
notes: Fully rabbit antibody: 7G6 CDRs grafted onto rabbit variable frameworks
B3: 7G6_rb_IGHV1S47_J3+IGKV1S19_JK1-3 (antibody, V domains shown)
VH: B1 VH
VL: B1 VL with F102L, G104P, V108L, V109E, V110I
B4: 15E3_rb_IGHV1S8_J5+IGLV2S2_JL5 (antibody, V domains shown)
VH: QKQLVESGGGLDQPAGSLKLSCKDSGFTLSTFYMTWVHQAPGKGLEWIANIKQDGSEKDYLDSVRGRFTISSDNTQNMVDLEMNSLTAADMAIYFCARNGLQDSYSGDFFDHWGQGTLVTVSS
VL: QPALTQPSSVSGALGGSVTITCSGTGSNIGHNYVSWYQQLPGSVPKLLMFDNTKRPSGIPERFSGSKSGTTASLTISGLQPEDEADYYCATWDADLSAVLFGGGTKLTVL
B5: MY006-7G6 Fab Hg Lg (Fab, V domains shown)
VH: QVQLVESGGGVVQPGRSLRLSCAASGIAFNDYTMHWVRRAPGKGLEWVAAISYGGTNKYYADSVKGRFTISRDSSKNTLYLQMNSLRAEDTAVYYCARDSGYRSLLHWGQGTLVTVSS
VL: EIVLTQSPLSLPVTPGEPASISCRSSQSLVHRNGYNYLDWYLQKPGQSPQLLIYMASKRASGVPDRFSGSGSGTDFTLKISRVEAEDVGVYYCMQALQTWTFGQGTKVEIK
notes: Germlined variant, IgG1-Fab format
B6: MY006-7G6 Fab Hf (Fab, V domains shown)
VH: B5 VH with R39Q, S74N
VL: B5 VL with D75E, V90I, I110V, K111N
notes: Germlined variant, IgG1-Fab format; also called 7G6 Hf
B7: MY006-7G6 Fab Hg (Fab, V domains shown)
VH: B5 VH
VL: B5 VL with D75E, V90I, I110V, K111N
notes: Germlined variant, IgG1-Fab format; also called 7G6 Hg
B8: MY006-7G6 Fab Hf Lg (Fab, V domains shown)
VH: B5 VH with R39Q, S74N
VL: B5 VL
notes: Germlined variant, IgG1-Fab format; also called 7G6: Hf/Lg
B9: MY006-7G6 Fab Hf Lf (Fab, V domains shown)
VH: B5 VH with R39Q, S74N
VL: B5 VL with E1D, L4M
notes: as for B5
B10: MY006-7G6 Fab Lg (Fab, V domains shown)
VH: B5 VH with A40S, G42D, Y80F, N84D, A88V
VL: B5 VL
notes: Germlined variant, IgG1-Fab format; also called 7G6 Lg
B11: MY006-7G6 Fab Lf (Fab, V domains shown)
VH: B5 VH with A40S, G42D, Y80F, N84D, A88V
VL: B5 VL with E1D, L4M
notes: Germlined variant, IgG1-Fab format; also called 7G6 Lf
B12: MY006-7G6 Fab Hg Lf (Fab, V domains shown)
VH: B5 VH
VL: B5 VL with E1D, L4M
notes: as for B5
B13: MY006-15E3 Fab Hg Lg (Fab, V domains shown)
VH: EVQLVESGGGLVQPGGSLRLSCAASGFKFSTFYMTWIRQAPGKGLEWVANIKQDGSEKDYLDSVRGRFTISRDNAKSSLYLQMNSLRAEDTAVYYCTRNGLQDSYSGDFFDHWGQGTLVTVSS
VL: QSVLTQPPSVSAAPGQKVTISCSGTGSNIGHNYVSWYQQLPGTAPKLLIFDNTKRPSGIPDRFSGSKSGSSATLGITGLQTGDEADYFCATWDADLSAVLFGGGTKLTVL
notes: as for B5
B14: MY006-15E3 Fab Hg Lf (Fab, V domains shown)
VH: B13 VH
VL: B13 VL with F50Y, S70T, F88Y
notes: as for B5
B15: MY006-15E3 Fab Hf (Fab, V domains shown)
VH: B13 VH with I37V, S77N
VL: B13 VL with V10I, G42R, K46R, D86H
notes: Germlined variant, IgG1-Fab format; also called 15E3 Hf
B16: MY006-15E3 Fab Hf Lg (Fab, V domains shown)
VH: B13 VH with I37V, S77N
VL: B13 VL
notes: Germlined variant, IgG1-Fab format; also called 15E3: Hf/Lg
B17: MY006-15E3 Fab Lg (Fab, V domains shown)
VH: B13 VH with G10A, T69N, S78V, S85T, R87S, E89D, A92G, T117I
VL: B13 VL
notes: Germlined variant, IgG1-Fab format; also called 15E3 Lg
B18: MY006-15E3 Fab Lf (Fab, V domains shown)
VH: B13 VH with G10A, T69N, S78V, S85T, R87S, E89D, A92G, T117I
VL: B13 VL with F50Y, S70T, F88Y
notes: Germlined variant, IgG1-Fab format; also called 15E3 Lf
B19: MY006-15E3 Fab Hf Lf (Fab, V domains shown)
VH: B13 VH with I37V, S77N
VL: B13 VL with F50Y, S70T, F88Y
notes: as for B5
B20: MY006-15E3 Fab Hg (Fab, V domains shown)
VH: B13 VH
VL: B13 VL with V10I, G42R, K46R, D86H
notes: Germlined variant, IgG1-Fab format; also called 15E3 Hg
B21: MY006-2F8 Fab Lg (Fab, V domains shown)
VH: EVQLVESGGGLVKPGGSLRLSCAASGFIFSDYNMNWVRQAPGKGLEWVSSITRSSRTIYYADSVKGRFTISRDNAKNSLHLQMNSLRDADTAVYYCAREDFDVSTGPYYMDVWGNGTTVIVSS
VL: EIVLTQSPGTLSLSPGERATLSCRASQSVSNMFLVWYQQKPGQAPRLLMYGASTRATGIPDRFSGSGSGTDFTLTISRLEPEDFAVYYCQQNGNSPYTFGQGTKLEIK
notes: Germlined variant, IgG1-Fab format; also called 2F8 Lg
B22: MY006-2F8 Fab Lf (Fab, V domains shown)
VH: B21 VH
VL: B21 VL with M49I
notes: Germlined variant, IgG1-Fab format; also called 2F8 Lf
B23: MY006-2F8 Fab Hg Lg (Fab, V domains shown)
VH: B21 VH with K13Q, H80Y, A89E, N115K, I120T
VL: B21 VL
notes: as for B5
B24: MY006-2F8 Fab Hg (Fab, V domains shown)
VH: B21 VH with K13Q, H80Y, A89E, N115K, I120T
VL: B21 VL with G58D
notes: Germlined variant, IgG1-Fab format; also called 2F8 Hg
B25: MY006-2F8 Fab Hg Lf (Fab, V domains shown)
VH: B21 VH with K13Q, H80Y, A89E, N115K, I120T
VL: B21 VL with M49I
notes: Germlined variant, IgG1-Fab format; also called 2F8: Hg/Lf
B26: 7G6 (antibody, V domains shown)
VH: B5 VH with A40S, G42D, Y80F, N84D, A88V
VL: B5 VL with D75E, V90I, I110V, K111N
notes: Fully human monoclonal antibody, wild-type variable regions; tested as IgG; also called MY006-7G6
B27: 2F8 (antibody, V domains shown)
VH: B21 VH
VL: B21 VL with G58D
notes: Fully human monoclonal antibody, wild-type variable regions; tested as IgG; also called MY006-2F8

Target: T1, Ara h 6 (Arachis hypogaea allergen 6)
Assay: ELISA, purified rabbit antibody

Question: Does B1 bind?
Answer: Result: binds

Question: Does B2 bind?
Answer: Result: binds

Question: Does B3 bind?
Answer: Result: binds

Question: Does B4 bind?
Answer: Result: binds

Target: T1, Ara h 6 (Arachis hypogaea allergen 6)
Assay: ELISA, Fab titration on coated Ara h 6
Procedure: Next, the effect of the engineered variable regions on antigen binding was tested. Briefly, ELISA plates were coated with respective Ara h proteins (Ara h 2:0.05 ug/ml, Ara h 6:0.1 ug/ml, Ara h 3 loop (2nd): 0.1 ug/ml) overnight at 4° C. Afterwards, plates were blocked with BSA (2% in PBS) for 1 hour at room temperature. Fab fragment titration series starting from 4 ug/ml was prepared, added to the single ELISA plate wells and incubated for 2 h at room temperature. The read-out was performed by adding anti-hu-kappa/lambda-HRP (anti-kappa Invitrogen (A18853) and anti-lambda abcam (ab99811) for 1 h at room temperature. Tetramethylbenzidine substrate solution (TMB, Sigma-Aldrich Chemie GmbH, Buchs, Switzerland) was added, then after 5 minutes of hydrolysis time, the reaction was stopped by the addition of 1 M H₂SO₄ and the absorbances were read at 450 nm.

Question: Does B5 bind?
Answer: Result: binds

Question: Does B6 bind?
Answer: Result: binds

Question: Does B7 bind?
Answer: Result: binds

Question: Does B8 bind?
Answer: Result: binds

Question: Does B9 bind?
Answer: Result: binds

Question: Does B10 bind?
Answer: Result: binds

Question: Does B11 bind?
Answer: Result: binds

Question: Does B12 bind?
Answer: Result: binds

Question: Does B13 bind?
Answer: Result: binds

Question: Does B14 bind?
Answer: Result: binds

Question: Does B15 bind?
Answer: Result: binds

Question: Does B16 bind?
Answer: Result: binds

Question: Does B17 bind?
Answer: Result: binds

Question: Does B18 bind?
Answer: Result: binds

Question: Does B19 bind?
Answer: Result: binds

Question: Does B20 bind?
Answer: Result: binds

Question: Does B21 bind?
Answer: Result: binds

Question: Does B22 bind?
Answer: Result: binds

Question: Does B23 bind?
Answer: Result: binds

Question: Does B24 bind?
Answer: Result: binds

Question: Does B25 bind?
Answer: Result: binds

Target: T2, Ara h 2 (Arachis hypogaea allergen 2)
Assay: ELISA, antibody titrated on coated Ara h 2
Procedure: (§1) Monoclonal antibodies 2F8, 7G6, 17H9 and 15E3 were tested for their specificity against the major peanut allergens Ara h 1, 2, 3, and 6 by ELISA (enzyme linked immunosorbent assay). Briefly, ELISA plates were coated with respective Ara h proteins (Arah1: 0.5 ug/ml, Arah2: 0.01 ug/ml, Arah3: 0.1 ug/ml, Arah6: 0.05 ug/ml) overnight at 4° C. Afterwards, plates were blocked with BSA (2% in PBS) for 1 hour at room temperature. Antibody titration series starting from 3 ug/ml was prepared, added to the single ELISA plate wells and incubated for 2 h at room temperature. The read-out was performed by adding anti-hu-IgG-HRP (anti-human-IgG horseradish peroxidase; Jackson ImmunoResearch, West Grove, PA, USA) for 1 h at room temperature. Tetramethylbenzidine substrate solution (TMB, Sigma-Aldrich Chemie GmbH, Buchs, Switzerland) was added, then after 5 minutes of hydrolysis time, the reaction was stopped by the addition of 1 M H₂SO₄ and the absorbances were read at 450 nm.

Question: How did the EC50 turn out when B26 was run?
Answer: Its EC50 is 0.629 ng/mL.

Question: Which EC50 does the source give for B27 here?
Answer: Its EC50 is 3.31 ng/mL.

Target: T1, Ara h 6 (Arachis hypogaea allergen 6)
Assay: ELISA, antibody titrated on coated Ara h 6
Procedure: as §1

Question: For B26, which EC50 is on record?
Answer: The EC50 was 1 ng/mL.

Question: For B27, which EC50 is on record?
Answer: The EC50 was 2.46 ng/mL.
